Consider two molecules from paper PMC3212630.

Changes are numbered by the printed parent chain. Read-outs that look alike come from different tables or passages of the source.

In series [1] the target is T1, rCsrABb (carbon storage regulator A) (Borrelia burgdorferi, UniProt O51202 1-81).
T1 sequence: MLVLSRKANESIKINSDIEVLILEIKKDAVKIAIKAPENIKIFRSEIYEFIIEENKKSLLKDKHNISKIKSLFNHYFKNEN
Briefly: EMSA. Background: Mobility shift assays separate free from complexed probe on a gel.

For series [2], the target named is T1, rCsrABb (carbon storage regulator A). Nature of the series: EMSA. This is another data set of the same source.

B1: flaB leader probe, wild type (P10, flaBp) (ssRNA)
RNA: GCAAAAGGAUUUGCCAAAGUCAGAAUUUAAAUUUUAUCAUGGAGGAAUGA
Consider B1, for which, in series [1], the binding result is recorded as “binds”.

B2: flaB leader probe, BS1 BS2 mutated (P13) (ssRNA)
RNA: B1 RNA with G7A, G8A, G41A, G42A
Consider B2, for which, in series [2], the binding result is “no binding”.
